Measurements published in US20120114665A1 (Regeneron, published 2012).
Where two headings read alike, the source gives them in different places. Each block holds one binder with its values, some of them ahead of it.

Experiments:
[1] = target: T1, human RANKL (receptor activator of NF-κB ligand) (human, UniProt O14788 140-317, limits assumed); assay: cell-based or functional assay
T1 sequence: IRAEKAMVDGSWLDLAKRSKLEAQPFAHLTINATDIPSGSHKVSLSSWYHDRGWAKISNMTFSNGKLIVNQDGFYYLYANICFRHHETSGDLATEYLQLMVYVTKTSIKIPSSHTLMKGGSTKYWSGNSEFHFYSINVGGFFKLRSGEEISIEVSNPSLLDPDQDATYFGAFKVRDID

human trRANKL-his (R&D) [2] = target: T2, human trRANKL-his (R&D) (human, UniProt O14788 136-317, limits assumed); assay: SPR, trRANKL-his captured on anti-his, antibody 12.5-50 nM injected, 25°C
T2 construct: Bought (R&D); also called captured RANKL; not shown: his tag
T2 sequence: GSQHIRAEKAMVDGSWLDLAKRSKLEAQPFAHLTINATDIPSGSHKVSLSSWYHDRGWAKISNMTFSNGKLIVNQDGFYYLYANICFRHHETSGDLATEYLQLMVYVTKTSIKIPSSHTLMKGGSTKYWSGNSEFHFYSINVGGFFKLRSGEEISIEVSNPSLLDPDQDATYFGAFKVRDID
From the text: (§1) Briefly, human trRANKL-his (R&D) was first captured over an anti-his surface. […] The antigen and antibody binding and dissociation were monitored for 1 hr. KD is expressed in pM, T_{1/2} in hrs.

human trRANKL-his (R&D) [3] = target: T2, human trRANKL-his (R&D); assay: SPR, trRANKL-his captured on anti-his, antibody 12.5-50 nM injected, 37°C
From the text: as §1

penta-his-tagged hRANKL [4] = target: T3, penta-his-tagged hRANKL (human); assay: competition ELISA: 150 pM his-hRANKL pre-mixed with antibody, free RANKL detected on hRANK-hFc plate
T3 construct: also called his-hRANKL; not shown: penta-his tag
T3 chain: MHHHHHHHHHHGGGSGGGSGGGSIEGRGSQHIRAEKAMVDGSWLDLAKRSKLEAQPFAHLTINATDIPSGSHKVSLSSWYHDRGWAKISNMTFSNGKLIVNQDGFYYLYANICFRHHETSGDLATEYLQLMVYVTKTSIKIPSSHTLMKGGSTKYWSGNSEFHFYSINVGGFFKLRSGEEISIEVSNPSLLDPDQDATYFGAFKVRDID
Description: (§2) Briefly, hRANK-hFc protein was coated on a 96-well plate in PBS buffer overnight at 4° C. at 2 μg/ml, and nonspecific binding was blocked with BSA, to form a hRANK-hFc surface.

[5] = target: T4, penta-his-tagged monkey (Macaca fascicularis) RANKL (Macaca fascicularis, UniProt O14788 125-317 (human entry)); assay: competition ELISA: 150 pM his-mfRANKL pre-mixed with antibody, free RANKL detected on hRANK-hFc plate
T4 construct: also called his-mfRANKL; mfRANKL; not shown: penta-his tag
T4 chain: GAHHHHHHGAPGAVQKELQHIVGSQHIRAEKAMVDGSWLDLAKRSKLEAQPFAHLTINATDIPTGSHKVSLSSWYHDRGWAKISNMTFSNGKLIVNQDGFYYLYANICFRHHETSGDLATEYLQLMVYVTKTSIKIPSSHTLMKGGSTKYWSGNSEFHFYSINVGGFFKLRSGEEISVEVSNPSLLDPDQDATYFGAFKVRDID
Description: as §2

[6] = target: T1, human RANKL (receptor activator of …); assay: cell-based or functional assay; remark: listed apart in the source
[7] = target: T1, human RANKL (receptor activator of …); assay: SPR (BIACORE), purified antibody, 25°C
[8] = target: T1, human RANKL (receptor activator of …); assay: SPR (BIACORE), purified antibody, 37°C
[9] = target: T5, hRANKL captured on an anti-penta-his antibody surface (human, UniProt O14788 136-317); assay: SPR (BIACORE), hRANKL captured on anti-penta-his, antibody 25-100 nM injected, 25°C
T5 construct: also called captured hRANKL surface; not shown: his tag implied by capture on anti-penta-his
T5 sequence: T2 sequence

[10] = target: T5, hRANKL captured on an anti-penta-his …; assay: SPR (BIACORE), hRANKL captured on anti-penta-his, antibody 25-100 nM injected, 37°C
penta-his-tagged hRANKL [11] = target: T3, penta-his-tagged hRANKL; assay: competition ELISA: 150 pM his-hRANKL pre-mixed with antibody, free RANKL detected on hRANK-hFc plate
Description: as §2

[12] = target: T4, penta-his-tagged monkey (Macaca …); assay: competition ELISA: 150 pM his-mfRANKL pre-mixed with antibody, free RANKL detected on hRANK-hFc plate
Description: as §2

IC50, hRANKL-inducible luciferase activity in HK293/RANK/NFκB-luc-eGFP cells [1]: 18.7 pM
Kd (human trRANKL-his (R&D) [2]): 134 pM
T1/2 (human trRANKL-his (R&D) [2]): 1 h
Kd (human trRANKL-his (R&D) [3]): 848 pM
T1/2 (human trRANKL-his (R&D) [3]): 0.15 h
IC50 (penta-his-tagged hRANKL [4]): 51.9 pM
IC50 [5]: 353 pM
B1: H4H010P2 (antibody, V domains shown)
VH: QVQLVQSGGGVVQPGRSLRLSCAASGFTFSGYGMHWVRQAPGKGLDWVTVISYDGSNKHYADSVKGRFTISRDNSKNTLYLQMSSLGPEDTAVYYCAKSLSGTYWGYGMDVWGQGTTVTVSS
VL: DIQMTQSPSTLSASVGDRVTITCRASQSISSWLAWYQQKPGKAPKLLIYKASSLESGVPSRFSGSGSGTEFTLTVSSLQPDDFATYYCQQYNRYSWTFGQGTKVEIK

IC50, hRANKL-inducible luciferase activity in HK293/RANK/NFκB-luc-eGFP cells [6]: 20 pM
IC50, hRANKL-inducible luciferase activity in HK293/RANK/NFκB-luc-eGFP cells [1]: 10.8 pM
Kd [7]: 7 pM
Kd [8]: 163 pM
Kd (human trRANKL-his (R&D) [2]): 11.9 pM
T1/2 (human trRANKL-his (R&D) [2]): 6 h
Kd (human trRANKL-his (R&D) [3]): 39.5 pM
T1/2 (human trRANKL-his (R&D) [3]): 1 h
Kd [9]: 11.9 pM
T1/2 [9]: 6 h
Kd [10]: 39.9 pM
T1/2 [10]: 1 h
IC50 (penta-his-tagged hRANKL [11]): 20 pM
IC50 (penta-his-tagged hRANKL [4]): 90 pM
IC50 [12]: 160 pM
IC50 [5]: 290 pM
B2: H4H008G (antibody, V domains shown)
VH: QVQLVESGGGVVQPGRSLRLSCAASGFTFSGFGMHWVRQAPGKGLEWVAVISYDGRNKYYADSVKGRFTISRDNSKNTLYLQMNSLRAEDTAVYYCAKSLSGTYWGYGMDVWGQGTTVTVS
VL: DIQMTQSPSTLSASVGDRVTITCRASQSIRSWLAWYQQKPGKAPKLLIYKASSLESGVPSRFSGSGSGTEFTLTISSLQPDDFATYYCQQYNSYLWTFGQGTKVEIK
notes: Purified antibody from clone 2G10
